Reference: publication PMC3655264 (2010)
Where no end group is shown, it is not given here. [ ]: non-standard residue; d: D form. The star is where a group is joined. MPB‑DPPE = 1,2-dipalmitoyl-sn-glycero-3-phosphoethanolamine-N-[4-(p-maleimidophenyl)butyramide], CCCCCCCCCCCCCCCC(=O)OC[C@H](COP(=O)(O)OCCNC(=O)CCCc1ccc(N2C(=O)CC(*)C2=O)cc1)OC(=O)CCCCCCCCCCCCCCC; pS = N[C@@H](COP(=O)(O)O)C(=O)O

What was measured:
μ2 KRR>E Core [1] = target: T1, μ2 KRR>E Core (Rattus norvegicus (alpha2, mu2), Homo …); experiment: SPR; liposomes with 10% PtdIns4,5P2 + 1% TGN38
T1 sequence (chain, as listed by the source, chain 1 of 4): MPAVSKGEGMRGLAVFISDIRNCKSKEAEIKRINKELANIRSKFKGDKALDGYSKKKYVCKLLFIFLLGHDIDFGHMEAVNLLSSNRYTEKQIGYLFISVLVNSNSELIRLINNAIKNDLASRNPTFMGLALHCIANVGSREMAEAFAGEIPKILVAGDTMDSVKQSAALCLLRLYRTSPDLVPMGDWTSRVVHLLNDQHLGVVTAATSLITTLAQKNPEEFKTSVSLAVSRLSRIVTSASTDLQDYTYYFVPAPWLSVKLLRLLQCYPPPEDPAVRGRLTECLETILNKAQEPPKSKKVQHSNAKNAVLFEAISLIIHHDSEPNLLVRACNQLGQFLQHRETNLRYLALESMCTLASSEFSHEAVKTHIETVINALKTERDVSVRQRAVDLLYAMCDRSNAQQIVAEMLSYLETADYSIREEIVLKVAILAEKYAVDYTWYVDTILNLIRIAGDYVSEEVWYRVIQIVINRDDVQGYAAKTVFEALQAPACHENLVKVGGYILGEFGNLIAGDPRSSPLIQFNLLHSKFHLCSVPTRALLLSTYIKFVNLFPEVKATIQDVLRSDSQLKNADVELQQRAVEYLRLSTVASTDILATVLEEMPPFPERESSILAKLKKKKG
T1 sequence (chain, as listed by the source, chain 2 of 4): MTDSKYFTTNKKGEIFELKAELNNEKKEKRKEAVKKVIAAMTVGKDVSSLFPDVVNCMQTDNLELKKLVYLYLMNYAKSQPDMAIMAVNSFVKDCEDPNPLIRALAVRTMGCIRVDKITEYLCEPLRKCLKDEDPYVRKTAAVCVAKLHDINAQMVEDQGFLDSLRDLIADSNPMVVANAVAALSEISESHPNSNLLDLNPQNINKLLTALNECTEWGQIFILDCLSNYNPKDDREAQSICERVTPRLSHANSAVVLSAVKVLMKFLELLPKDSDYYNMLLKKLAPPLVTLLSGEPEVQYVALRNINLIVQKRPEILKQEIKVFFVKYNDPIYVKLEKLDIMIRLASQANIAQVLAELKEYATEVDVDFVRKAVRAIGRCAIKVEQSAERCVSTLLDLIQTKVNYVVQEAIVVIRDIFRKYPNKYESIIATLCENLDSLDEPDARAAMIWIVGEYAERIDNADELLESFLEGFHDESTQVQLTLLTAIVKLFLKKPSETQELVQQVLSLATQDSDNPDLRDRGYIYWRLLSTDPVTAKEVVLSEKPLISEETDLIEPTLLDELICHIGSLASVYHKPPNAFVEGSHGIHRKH
T1 sequence (chain, as listed by the source, chain 3 of 4): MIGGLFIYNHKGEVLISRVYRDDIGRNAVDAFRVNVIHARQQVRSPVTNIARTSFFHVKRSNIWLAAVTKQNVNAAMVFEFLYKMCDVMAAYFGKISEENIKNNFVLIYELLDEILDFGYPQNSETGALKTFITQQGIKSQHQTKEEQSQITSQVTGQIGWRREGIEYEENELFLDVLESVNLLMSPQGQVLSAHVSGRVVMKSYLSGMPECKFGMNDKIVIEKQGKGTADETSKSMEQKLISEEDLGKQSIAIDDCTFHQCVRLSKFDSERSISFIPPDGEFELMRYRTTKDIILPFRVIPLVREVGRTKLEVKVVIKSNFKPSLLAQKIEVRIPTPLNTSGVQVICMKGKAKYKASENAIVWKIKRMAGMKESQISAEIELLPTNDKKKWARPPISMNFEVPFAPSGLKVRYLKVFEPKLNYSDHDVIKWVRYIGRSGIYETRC
T1 sequence (chain, as listed by the source, chain 4 of 4): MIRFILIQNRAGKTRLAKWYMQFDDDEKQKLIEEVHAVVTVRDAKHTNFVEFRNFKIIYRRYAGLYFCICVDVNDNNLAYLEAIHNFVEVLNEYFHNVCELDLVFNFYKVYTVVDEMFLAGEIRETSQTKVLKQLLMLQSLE

[2] = target: β2^PIP-Core (AP2 core with β2 Lys5, Lys12, Lys26, Lys27, Lys29, Lys36 mutated to glutamate) (UniProt P63010 1-592; P84092 1-236; P84092 237-435; P62743 1-142, Lys5 to glutamate | Lys12 to glutamate | Lys26 to glutamate | Lys27 to …); experiment: SPR; liposomes with 10% PtdIns4,5P2 + 1% TGN38
Chain of β2^PIP-Core (AP2 core with β2 Lys5, Lys12, Lys26, Lys27, Lys29, Lys36 mutated to glutamate) (P18484 other isoform, or with tags, fused parts or gaps with the stated changes, chain 1 of 4): as the sequence (chain, as listed by the source, chain 1 of 4) above
Chain of β2^PIP-Core (AP2 core with β2 Lys5, Lys12, Lys26, Lys27, Lys29, Lys36 mutated to glutamate) (P63010 other isoform, or with tags, fused parts or gaps with the stated changes, chain 2 of 4): as the sequence (chain, as listed by the source, chain 2 of 4) above, with K5E, K12E, K26E, K27E, K29E, K36E counted along it
Chain of β2^PIP-Core (AP2 core with β2 Lys5, Lys12, Lys26, Lys27, Lys29, Lys36 mutated to glutamate) (Q96CW1 other isoform, or with tags, fused parts or gaps with the stated changes, chain 3 of 4, further chain): as the sequence (chain, as listed by the source, chain 3 of 4) above, with E167K, E169R, E170R counted along it
Chain of β2^PIP-Core (AP2 core with β2 Lys5, Lys12, Lys26, Lys27, Lys29, Lys36 mutated to glutamate) (B2R4Z4 whole entry, stated change not applied, chain 4 of 4, further chain): as the sequence (chain, as listed by the source, chain 4 of 4) above

[3] = target: T2, AP2 core (recombinant; α trunk, β2 trunk, myc-tagged μ2, σ2) (UniProt P63010 1-592; P84092 1-236; P84092 237-435; P62743 1-142); experiment: SPR; liposomes with 10% PtdIns4,5P2 + 1% TGN38
T2 sequence (chain, as listed by the source, chain 1 of 4): as the sequence (chain, as listed by the source, chain 1 of 4) above
T2 sequence (P63010 1-592, chain 2 of 4): as the sequence (chain, as listed by the source, chain 2 of 4) above
T2 sequence (P84092 other isoform, or with tags, fused parts or gaps, chain 3 of 4): as the sequence (chain, as listed by the source, chain 3 of 4) above, with E167K, E169R, E170R counted along it
T2 sequence (P62743 whole entry, chain 4 of 4): as the sequence (chain, as listed by the source, chain 4 of 4) above

[4] = target: α^PIP-Core (AP2 core with mutations in the PtdIns4,5P2-binding site on α) (UniProt P63010 1-592; P84092 1-236; P84092 237-435; P62743 1-142); experiment: SPR; liposomes with 10% PtdIns4,5P2 + 1% TGN38
[5] = target: T3, μ2^PIP-Core (AP2 core with the μ2 mutations 5K>E and KRR>E combined) (UniProt P63010 1-592; P84092 1-236; P84092 237-435; P62743 1-142); experiment: SPR; liposomes with 10% PtdIns4,5P2 + 1% TGN38
μ2 5K>E Core [6] = experiment: SPR; liposomes with 10% PtdIns4,5P2 + 1% TGN38
μ2 KRR>E Core [7] = target: T1, μ2 KRR>E Core; experiment: SPR; liposomes with 10% PtdIns4,5P2 + 1% CD4P
[8] = target: T2, AP2 core (recombinant; α trunk, β2 …); experiment: SPR; liposomes with 10% PtdIns4,5P2 + 1% CD4P
[9] = target: T3, μ2^PIP-Core (AP2 core with the μ2 …); experiment: SPR; liposomes with 10% PtdIns4,5P2 + 1% CD4P
μ2 5K>E Core [10] = experiment: SPR; liposomes with 10% PtdIns4,5P2 + 1% CD4P

| Kd (μ2 KRR>E Core [1]) | Kd [2] | Kd [3] | Kd [4] | Kd [5] | Kd (μ2 5K>E Core [6]) | Kd (μ2 KRR>E Core [7]) | Kd [8] | Kd [9] | Kd (μ2 5K>E Core [10]) | Binder |
| --- | --- | --- | --- | --- | --- | --- | --- | --- | --- | --- |
| 330 nM | 20000 nM | 320 nM | > 30000 nM | 6200 nM | 520 nM | – | – | – | – | C(MPB‑DPPE)KVTRRPKASDYQRL [lipid-linked TGN38 sorting motif peptide (CKVTRRPKASDYQRL) displayed in liposomes] |
| – | – | – | – | – | – | 850 nM | 820 nM | 2500 nM | 950 nM | C(1,2‑dipalmitoyl‑sn‑glycero‑3‑phosphoethanolamine‑N‑(4-(p-maleimidophenyl)butyramide))HRRRQAERM[pS]QIKRLLSEK |
